Measured values reported in US9206239B2, “Treatment of cancers with immunostimulatory HIV Tat derivative polypeptides” (PIN Pharma, Inc., priority 2009, dated 2015).

What was measured:
4T1 cells = assay: Repeated dosing of Nani-P2 alternating with cyclophosphamide in 4T1 tumor-bearing mice; format: in vivo, BALB/c mice
Description: Four groups of 10 BALB/c mice were implanted with 1×10^4 4T1 cells SC into the mammary fat pad. Treatment was initiated when tumor diameters reached 4-5 mm, on day 10. Control mice were injected IV with PBS at 3 days intervals, while alternating treatment mice received 3 doses of drug every 3 days in rotating 10 day cycles. Tumor burden (tumor size mm^3) was calculated using a standard formula. CY: (cyclophosphamide alone) mice were injected IP weekly with 80 mg/kg per mouse beginning on day 10. Cy/Nani-P2: (cyclophosphamide first followed by Nani-P2) mice were first injected IP with cyclophosphamide (80 mg/kg) at 3 days intervals for three doses starting at day 10 and then injected IV with Nani-P2 (40 ng) at 3 days intervals for three doses in rotation. The cycle of 3 doses of CY followed by 3 doses of Nani-P2 was repeated until day 50. Nani-P2/CY: (Nani-P2 first followed by cyclophosphamide): mice were first injected IV with Nani-P2 (40 ng) at 3 day intervals for 3 doses starting on day 10 and then injected i.p. with cyclophosphamide at 3 day intervals in rotation. The cycle of 3 doses of Nani-P2 followed by 3 doses of CY was repeated until day 50.

[1] = test system: IFN-γ production by spleen cells; assay: ELISA analysis of IFN-γ production by immune spleen cells of 4T1 tumor-bearing mice; format: in vivo, BALB/c mice
Description: FIG. 7 depicts INF-γ production from spleen cells of mice bearing 4T1 breast tumors. BALB/c mice were injected SC with 1×10^4 4T1 cells. Control animals received weekly injections of PBS, while the Nani-P2 treatment comprised once weekly SC injections (40 ng) initiated at day 0 and continued for 4 weeks. On day 33, when control mice were at endstage, the mice were sacrificed, the spleens harvested and frozen as single cell suspensions until time of assay. Spleen cells (2×10^5) and 1×10^4 mitomycin C-treated (50 μg/ml for 30 min) 4T1 stimulator cells (S) were plated into 96-well plates. After 72 hr of stimulation, the supernatants were collected and IFN-γ concentration was determined using a commercial IFN-γ ELISA kit. […] 1: no restimulation; 2: IL-4 (50 ng/ml)/GM-CSF ([…]); 3: stimulator cells/IL-4/GM-CSF; 4: stimulator cells only.
Splenocyte secretion of IFN-γ was assessed by an OPTEIA® ELISA kit (BD Biosciences). Briefly, spleen cells (1×10^5/well) from 4T1 tumor-bearing mice were cultured with or without 5×10^3/well mitomycin C (50 μg/ml)-treated 4T1 cells (used to provide tumor antigens) in DMEM in at a 20:1 E:T (effector:tumor) ratio with […] (50 ng/mL) and GM-CSF (100 ng/ml) in 96-well plates. Supernatants were collected after 72 hr and kept frozen at −80° C. until analysis without loss of activity. IFN-γ was measured in cell-free supernatants of duplicate wells by ELISA according to the manufacturer's instructions. Tumor-specific IFN-γ production was calculated by subtracting the background values measured in supernatants of spleen cells cultured with medium alone and optical density (OD) values were converted to pg/ml amounts of IFN-γ using a recombinant IFN-γ standard curve. Stimulation index (SI) was calculated as the ratio of IFN-γ in stimulated versus control cultures.
To determine whether cytotoxic T-lymphocytes play a role in tumor rejection induced by Nani-P2 therapy, an IFN-γ ELISA assay (FIG. 7) was performed to compare spleen cells of 4T1 tumor-bearing mice treated either without (Control) or with Nani-P2 (FIG. 7). […]

Human monocytes = assay: CD86 expression on human monocytes cultured with Tat derivative; format: cell-based; conditions: human monocytes cultured 24-28 hours; compared with ISS (TLR) or LPS
Description: Human monocytes were cultured for 24-28 hours with a Tat derivative (Nani-P2), an immunostimulatory sequence (ISS) of a toll-like receptor (TLR) (FIG. 1) or lipopolysaccharide (LPS) (FIG. 2) and the cells were then washed and stained with fluorescent-labeled CD86.

4T1 lung metastases = assay: Detection of 4T1 lung metastases; format: in vivo, BALB/c mice; conditions: treated IV, established 4T1 tumors; p<0.01 vs PBS
Description: Lungs were examined for 4T1 metastases as previously described (Pulaski B. et al. Cancer Res. 60:2710-2715, 2000). Primary 4T1 tumors that have been established for 2-3 weeks in BALB/c mice metastasize to the lungs in a very large majority of animals. Briefly, mice were sacrificed according to IACUC guidelines established at the start of the trials, the lungs removed, and tumor nodules on the surface of the lungs were enumerated with the naked eye by two independent investigators blinded to the treatment protocols.
To further investigate the efficacy of Nani-P2 against established and metastatic breast cancer, 4T1 cells were injected SC in the abdominal mammary gland of mice and treatment was delayed until such time that the tumors had metastasized to the lungs and averaged 3.5 mm in size (FIG. 8A, day 13), corresponding to a 2.4 cm or stage T2 human breast tumor. Mice were followed for tumor growth (FIG. 8A) and lung metastases (FIG. 8B). […] This corresponded to a less aggressive appearance of primary tumor, as well as lung metastases that were on average much smaller in size (FIG. 8B).

4T1 breast tumors = assay: Kaplan-Meier survival of mice bearing 4T1 breast tumors; format: in vivo, BALB/c mice; conditions: for survival: day 47
Description: BALB/c were injected (SC) with 1×10^4 4T1, 1×10^5 TS/A or 2×10^5 SM1 cells, respectively, in the left mammary pad on day 0. Immunotherapy was performed by directly injecting a Tat derivative into the right flank at 0, 7, 12, and 17 days after establishment of tumors. The control group received PBS injection. […] Tumor burden (tumor volume) was measured and recorded three times weekly. Animals were sacrificed when tumors reached a volume of 15 mm in diameter and the tumors harvested and weighed.
Data were statistically analyzed using Student's t-test (Graph Pad Prism version 5; GraphPad). Data from animal survival experiments were statistically analyzed using log-rank test (Graph Pad Prism version 5).
To determine whether Nani-P2 treatment could extend survival in addition to shrinking primary tumors in mice, treatment protocols using various dosing schedules and routes (SC, IV or IT) of administration of 40 ng Nani-P2 were performed. Cohorts of ten mice per group were followed for length of survival, as assessed by use of the Kaplan-Meier product limit method. As per Columbia University Medical Center Animal Facility regulations, each mouse was euthanized at a mean tumor diameter of approximately 15 mm, or earlier if the mouse became moribund, making one of these two outcomes the defining criteria for fatality.

[2] = day 50, Nani-P2 alternating with cyclophosphamide

B1: Nani-P2: HIV Tat derivative polypeptide, SEQ ID NO: 3; derivatized Tat amino terminus from an African Green Monkey variant SIV (protein)
chain: MDPKGEEDQDVSHQDLIKQYRKPRTACNNCYCKKCCFHCYACFLRKGLGITYHAFRTRRKKIASADRIPVPQQSISIRGRDSQTTQESQKKVEEQAKANLRISRKNLGDETRGPVGAGN
modifications: Nani-P2 modified HIV Tat sequence
notes: derivatized Tat amino terminus from an African Green Monkey variant SIV
4T1 cells; Nani-P2 bolus treatment alternating with cyclophosphamide, p=0.0001
  survival benefit vs weekly cyclophosphamide: highly statistically significant
4T1 cells; [2]
  mice in partial remission: 9/10
  mice in total remission: 3/10
[1]; 40 ng SC weekly for 4 weeks, no restimulation
  baseline levels of INF-γ secreted by splenocytes vs PBS-treated control mice: 8 fold
[1]; all conditions of assay
  INF-γ production in cultures of spleen cells vs control: significantly (p<0.01**) higher
[1]; tumor stimulators + IL4 + GM-CSF added at initiation of culture
  stimulation index vs control: 53
Human monocytes
  expression of CD86: higher expression of CD86 than either ISS (TLR) or LPS
4T1 lung metastases
  average number of grossly visible tumor nodules in the lungs: seven
4T1 breast tumors; IT, 40 ng weekly x3, tumors established fourteen days
  survival, intratumoral administration: slightly inferior to SC administration
4T1 breast tumors; IV, 40 ng weekly x3, tumors established fourteen days, p<0.005
  survival: 60%
4T1 breast tumors; SC, 40 ng weekly x3, tumors established fourteen days, p<0.05
  survival: 20%
4T1 breast tumors; day 48, 40 ng SC, 4 doses over 21 days from day 0, p<0.001
  treated mice still alive: 35%
4T1 breast tumors; established 4T1 tumors, treated intravenously
  duration of tumor growth inhibition and survival benefits past the last dosing: at least 36 days
